Numbering of substitutions follows the chain as printed.
B1: #44 VH3VK3 humanised hIgG1 (antibody, V domains shown)
VH: QVQLQESGPGLVKPSETLSLTCTVSGIDLSSYAMAWVRQAPGKGLEWIGCIDRRGGTFYASWVKGRFTISKTSTTVDLQMTSLTAEDTATYFCARDSGAFDPWGQGTLVTVSS
VL: DIQMTQSPSSLSASVGDRVTITCQASQSVYDNYLAWYQQKPGQPPKLLIHAASNLASGVPSRFKGSGSGTEFTLTISSLQPDDFATYYCLGEFSCTTTDCNVFGGGTKVEIK
notes: also called VH3Vκ3; Clone VH3VK3 (A)
B2: #44 VH2VK2 humanised hIgG1 (antibody, V domains shown)
VH: QSVQESGPGLVKPSETLSLTCTVSGIDLSSYAMAWVRQAPGKGLEWIGCIDRRGGTFYASWVKGRFTISKTSTTVDLQMTSLTAEDTATYFCARDSGAFDPWGQGTLVTVSS
VL: B1 VL with D1Q, Q3V
notes: also called VH2Vκ2
B3: #44 VH3VK4 humanised hIgG1 (antibody, V domains shown)
VH: B1 VH
VL: B1 VL with K64S
notes: also called VH3Vκ4; Clone VH3VK4 (B)
B4: #44 VH4VK3 humanised hIgG1 (antibody, V domains shown)
VH: QVQLQESGPGLVKPSETLSLTCTVSGIDLSSYAMAWVRQAPGKGLEWIGCIDRRGGTFYASWVKGRFTISKDTSKTTVDLQMTSLTAEDTATYFCARDSGAFDPWGQGTLVTVSS
VL: B1 VL
notes: also called VH4Vκ3; Clone VH4VK3 (D)
B5: #44 VH1VK3 humanised hIgG1 (antibody, V domains shown)
VH: B2 VH with P8G, Q78K
VL: B1 VL
notes: also called VH1Vκ3
B6: #44 VH1VK4 humanised hIgG1 (antibody, V domains shown)
VH: B2 VH with P8G, Q78K
VL: B1 VL with K64S
notes: also called VH1Vκ4
B7: #44 VH2VK4 humanised hIgG1 (antibody, V domains shown)
VH: B2 VH
VL: B1 VL with K64S
notes: also called VH2Vκ4
B8: #44 VH4VK2 humanised hIgG1 (antibody, V domains shown)
VH: B4 VH
VL: B1 VL with D1Q, Q3V
notes: also called VH4Vκ2; Clone VH4VK2 (C)
B9: #44 VH2VK3 humanised hIgG1 (antibody, V domains shown)
VH: B2 VH
VL: B1 VL
notes: also called VH2Vκ3
B10: #44 VH2VK1 humanised hIgG1 (antibody, V domains shown)
VH: B2 VH
VL: B1 VL with D1Q, Q3V, G58R, P81C, K108E, E110V
notes: also called VH2Vκ1
B11: #44_VH4VK4_H07/pVL (antibody, V domains shown)
VH: B4 VH with C50A, R53A, R54A, G56N
VL: B1 VL with K64S
notes: also called Clone VH4_H07; #44_VH4_H07
B12: #44_VH4VK4_H08/pVL (antibody, V domains shown)
VH: B4 VH with C50A, R53A, R54A, G56R
VL: B1 VL with K64S
notes: also called Clone VH4_H08; #44_VH4_H08
B13: #44_VH4VK4_H09/pVL (antibody, V domains shown)
VH: B4 VH with C50A, R53A, G56N
VL: B1 VL with K64S
notes: also called Clone VH4_H09; #44_VH4_H09
B14: #44_VH4VK4_H05/pVL (antibody, V domains shown)
VH: B4 VH with S99A, A101H, P104Y
VL: B1 VL with K64S
notes: also called Clone VH4_H05; #44_VH4_H05
B15: #44_VH4VK4_H03/pVL (antibody, V domains shown)
VH: B4 VH with S99A, P104V
VL: B1 VL with K64S
notes: also called Clone VH4_H03; #44_VH4_H03

What follows are binders tested against T1, Bovine serum albumin (bovine, UniProt P02769 25-607) (assay: ELISA on 1% BSA, HEK supernatant, anti-human IgG-HRP, n=1).
T1 construct: also called BSA
Experimental: FIG. 7. A panel of humanised anti-tau IgG bind to full length recombinant 2N4R tau in an ELISA format. Supernatants from HEK cells transiently transfected with each IgG clone were tested at 1:100 for binding to full length recombinant 2N4R tau (solid bars). […] Binding of anti-tau hIgG1 was detected using an HRP-conjugated anti-human secondary antibody and data are shown from a representative experiment (n=1 replicate).
Antigen was removed from wells and the plates were then blocked for 1 hour at RT with 5% dried milk in 1×TBS. Blocking solution was removed, HEK293 cell supernatant (1:100 in 1% BSA/1×TBS) was added to relevant wells, and plates were incubated for 1 hour at RT with gentle shaking. Plates were then washed four times with TBS/0.1% Tween (TBST). Goat anti-human IgG-HRP antibody (Thermo Fisher Scientific, Waltham, MA, USA), diluted 1:2000 in 5% milk/TBS, was added to each well and plates were incubated for 1 hour at RT with gentle shaking before being washed four times with TBST. 3,3′,5,5′-tetramethylbenzidine (TMB) ELISA solution was added to each well and plates were incubated for 15 mins at RT. An equal volume of 1 M sulfuric acid was added to each well and OD was measured at 450 nm.

T1 sequence (P02769 25-607 limits assumed): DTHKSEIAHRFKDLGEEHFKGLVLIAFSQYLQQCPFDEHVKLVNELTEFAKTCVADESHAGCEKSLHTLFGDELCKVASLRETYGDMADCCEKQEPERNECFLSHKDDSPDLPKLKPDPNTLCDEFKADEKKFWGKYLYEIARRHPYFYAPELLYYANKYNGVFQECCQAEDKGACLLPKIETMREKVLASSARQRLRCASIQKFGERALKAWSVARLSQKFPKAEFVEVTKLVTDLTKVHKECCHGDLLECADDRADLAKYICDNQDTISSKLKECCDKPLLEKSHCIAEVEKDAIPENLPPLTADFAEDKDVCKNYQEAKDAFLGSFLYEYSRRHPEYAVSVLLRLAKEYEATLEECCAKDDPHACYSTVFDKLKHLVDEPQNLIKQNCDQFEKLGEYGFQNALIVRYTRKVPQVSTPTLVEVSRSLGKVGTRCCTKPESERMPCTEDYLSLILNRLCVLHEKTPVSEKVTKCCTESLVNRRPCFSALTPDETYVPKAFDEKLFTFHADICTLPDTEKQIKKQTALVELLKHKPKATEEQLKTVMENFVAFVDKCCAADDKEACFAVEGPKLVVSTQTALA

binding result | Binder
no binding (tested: supernatant 1:100) | B1
no binding (tested: supernatant 1:100) | B2
no binding (tested: supernatant 1:100) | B3
no binding (tested: supernatant 1:100) | B4
no binding (tested: supernatant 1:100) | B5
no binding (tested: supernatant 1:100) | B6
no binding (tested: supernatant 1:100) | B7
no binding (tested: supernatant 1:100) | B8
no binding (tested: supernatant 1:100) | B9
no binding (tested: supernatant 1:100) | B10

What follows are binders tested against aggregated (oligomeric) P301S 2N4R tau, pHrodo-labelled (human, UniProt P10636 1-758, pHrodo Red maleimide label) (assay: cell-based or functional assay).
aggregated (oligomeric) P301S 2N4R tau, pHrodo-labelled, sequence (P10636 other isoform, or with tags, fused parts or gaps P301S P301S): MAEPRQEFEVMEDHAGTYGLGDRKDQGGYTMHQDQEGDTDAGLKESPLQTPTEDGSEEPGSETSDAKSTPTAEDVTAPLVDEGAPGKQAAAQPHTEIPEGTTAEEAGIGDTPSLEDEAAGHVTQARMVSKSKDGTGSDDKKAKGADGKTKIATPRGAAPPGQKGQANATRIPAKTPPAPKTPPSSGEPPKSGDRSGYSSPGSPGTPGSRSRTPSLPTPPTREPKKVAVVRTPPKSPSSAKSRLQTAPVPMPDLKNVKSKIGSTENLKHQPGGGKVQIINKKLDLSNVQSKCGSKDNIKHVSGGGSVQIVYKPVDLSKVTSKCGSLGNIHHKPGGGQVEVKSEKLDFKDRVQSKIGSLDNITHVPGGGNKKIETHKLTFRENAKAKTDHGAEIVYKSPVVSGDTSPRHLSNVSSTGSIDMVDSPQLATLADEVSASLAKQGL

increase of aggregated tau uptake into human iPSC-derived microglia [%] | inhibition of aggregated tau uptake into human iPSC-derived astrocytes [%] | inhibition of aggregated tau uptake into human iPSC-derived neurons [%] | Binder
77.7 | 46.4 | 30.6 | B1
83.9 | 45 | 33.3 | B3
90.5 | 49.9 | 36.3 | B4
97.6 | 48 | 41.9 | B8

What follows are binders tested against monomeric P301S 2N4R tau, pHrodo-labelled (human, UniProt P10636 1-758, pHrodo Red maleimide label) (assay: cell-based or functional assay).
monomeric P301S 2N4R tau, pHrodo-labelled, sequence (P10636 other isoform, or with tags, fused parts or gaps P301S P301S): as above

increase of monomeric tau uptake into human iPSC-derived microglia [%] | inhibition of monomeric tau uptake into human iPSC-derived astrocytes [%] | inhibition of monomeric tau uptake into human iPSC-derived neurons [%] | Binder
16.1 | 85.2 | 48.4 | B1
80.3 | 87.6 | 43.1 | B3
60.2 | 87.5 | 41.8 | B4
71.4 | 84.6 | 50 | B8

Each binder was assayed against T2, full length recombinant human 2N4R tau (human, UniProt P10636 1-758) (assay: SPR SCK, IgG on Protein A, tau in flow).
T2 construct: bought from rPeptide; pHrodo Red maleimide-labelled where it stands in uptake assays; also called tau1-441; full length tau
T2 sequence (P10636 other isoform, or with tags, fused parts or gaps limits assumed): as the sequence (P10636 other isoform, or with tags, fused parts or gaps P301S P301S) above, with S301P counted along it

Fold change (KD, to pVH/pVL) | Kd [nM] | koff [s⁻¹] | kon [M⁻¹ s⁻¹] | Binder
0.9 | 7.35 |  |  | B11
0.26 | 25.7 | 0.011 | 426000 | B12
0.67 | 9.85 | 0.032 | 3.25e+06 | B13
1.36 | 4.84 | 0.0203 | 4.18e+06 | B14
1.03 | 6.4 | 0.0151 | 2.36e+06 | B15

These binders were tested against T2, full length recombinant human 2N4R tau (assay: SPR MCK, IgG on Protein A, tau in flow).
Experimental: Slight variations in RMAX are considered likely to be due to differences in ligand capture and not reflective of significant variation in antibody binding characteristics.
22.2 Assessment of antibody binding to tau (Biacore MCK analysis): Binding of anti-tau hIgG1 to full length recombinant 2N4R tau (Rpeptide; SEQ ID NO: 2) was assessed using the Biacore T200 (GE Healthcare, Chicago, IL, USA) running Biacore T200 Evaluation Software V2.0.1. hIgG1 were immobilised on a Protein A capture sensor chip in running buffer (HBS-EP+ buffer containing 1 mg/mL BSA) at 25° C., captured to ˜50 RU at […]. For multi-cycle kinetics experiments, recombinant 2N4R tau was flowed at concentrations ranging from 0.39 nM to 12.5 nM in running buffer at 40 μL/min, with an association time of 60 s and a dissociation time of 200 s. Curves were compared to a reference cell that was mock immobilized (no antibody present).

Kd [nM] | Relative KD (to VH0VK0) | koff [s⁻¹] | kon [M⁻¹ s⁻¹] | Binder
5.7 | 1.75 | 0.0927 | 1.63e+07 | B1
6.57 | 2.02 | 0.0618 | 9.4e+06 | B3
5.14 | 1.58 | 0.0403 | 7.83e+06 | B4
4.39 | 1.35 | 0.0401 | 9.14e+06 | B8

Target: T1, Bovine serum albumin
Assay: ELISA on 1% BSA, HEK supernatant, anti-human IgG-HRP, n=1
Remark: another data set of the same source

Binder | binding result
B11 | no binding (tested: 30 ng/ml (legend 1:100))
B12 | no binding (tested: 30 ng/ml (legend 1:100))
B13 | no binding (tested: 30 ng/ml (legend 1:100))
B14 | no binding (tested: 30 ng/ml (legend 1:100))
B15 | no binding (tested: 30 ng/ml (legend 1:100))

Target: T2, full length recombinant human 2N4R tau
Assay: SPR SCK, IgG on Protein A, tau in flow
Remark: another data set of the same source
Experimental: 21.5 Assessment of antibody binding to tau (Biacore SCK analysis): Binding of anti-tau hIgG1 to full length recombinant 2N4R tau (Rpeptide; SEQ ID NO: 2) was assessed using the Biacore T200 (GE Healthcare, Chicago, IL, USA) running Biacore T200 Evaluation Software V2.0.1. hIgG1 were immobilised on a Protein A capture sensor chip in running buffer (HBS-EP+ buffer containing 1 mg/mL BSA) at 25° C., captured to ˜50 RU at 10 μL/min. For single-cycle kinetics experiments, recombinant 2N4R tau was flowed at concentrations ranging from 1.25 nM to 10 nM (2-fold dilutions) with an association time of 60 s and a dissociation time of 200 s. Curves were compared to a reference cell that was mock immobilized (no antibody present).

Kd [nM] | Relative KD (to VH0VK0) | koff [s⁻¹] | kon [M⁻¹ s⁻¹] | Binder
7.71 | 2.01 | 0.0341 | 4.43e+06 | B1
5 | 1.31 | 0.0182 | 3.63e+06 | B2
7.02 | 1.83 | 0.043 | 6.12e+06 | B3
6.68 | 1.74 | 0.034 | 5.09e+06 | B4
5 | 1.31 | 0.0129 | 2.58e+06 | B5
4.15 | 1.08 | 0.0208 | 5.01e+06 | B6
5.33 | 1.39 | 0.0195 | 3.66e+06 | B7
6.86 | 1.79 | 0.0247 | 3.6e+06 | B8
4.52 | 1.18 | 0.0187 | 4.14e+06 | B9
7.94 | 2.07 | 0.021 | 2.64e+06 | B10

Reference: US20250270301A1 (GEN2 NEUROSCIENCE, published 2025)
